Laboratory results published in the nanobody polyreactivity screen of Harvey et al. (2022).

Assay: yeast display, Sf9 membrane polyspecificity reagent, FACS + sequencing; frameworks hold sequencing errors
Procedure, shortened: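 Galactose-induced (36–48 hours) yeast carrying a synthetic nanobody display library were exposed to 10% biotinylated, detergent-solubilized Sf9 membrane reagent at 4 °C for 1 hour. FACS followed streptavidin microbead enrichment, using low and high (top ~1%) gates for expression (anti-HA) and reagent binding (streptavidin). Colony PCR, MiSeq 2 × 250 sequencing and CDR-length filtering followed. Labels for polyreactivity reflect the gate of origin.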

Row | Sequence | polyreactivity (PSR sort gate)
1 | QVQLVESGGGLVQAGGSLRLSCAASGSTFVYYAMVWYRQAPGKERELVAAITGSVDSTYYADSVKGRFTISRDNAKNTVYLQMNSVKPEDTAVYYCAADTYSTYWGQGTQVTVSS | low polyreactivity
2 | QVQLVESGGGLVQAGGSLRLSCAASGSTFVSYAMGWYRQAPGKEREMVASISSGDSTYADSVKGRFTISRDNAKNTVYLQMNSLKREDTAVYYCNVGNEGSYGFPVTYDYWGQGSQVTVSS | low polyreactivity
3 | QVQLVESGGGLVQAGGSLRLSCAASGRIFGRYAMGWYRQAPGKERELVAAITSGGSTKYADSVKGRFTISRDNAKNNVDLQMNSLKPEDTAVYYCAVVPYGPVYRSYYYWGQGTQVTVSS | high polyreactivity
4 | QVQLVESGGGLVQAGGSLRLTCAASGSIFDKNVMGSYRQAPGKERELVAAISSSGGSTYYADSVKGRFTISRDIAKNTVYLQMNSLKPVDSAVYYCAKVPGRDRADRYWDHYSHDYWGQGTQVTVSS | high polyreactivity
5 | QVQLVESGGRLVQAGGSLRLSCAASGRTFQGNAMGWSRQAPGKERELVAAISIRSGRTYYADSVKGRFTISRDNAKNTVYLQMNSLKPEDTAVYYCAAYRGKVRYDYWGQGTQVTVSS | high polyreactivity
6 | QVQLVESGGGLVQAGGSLRLSCAASGRTFNYYAMGWSRQAPGKERELVAAITSGGRTNYADSVKGRFTISRDNAKNTVYLQMNSLKPEDTAVYYCATEYYRYRWVGAFRYPVYYWGQGTQVTVSS | low polyreactivity
7 | QVQLVESGGGLVQAGGSLRLSCAASGGTFGTNAMGWYRQAPGKEREFVAAISRSGGSTNYADSVKGRFTISRDNAKNTVYLEMNILKPEDTAVYFCATRVIVVPRGGGYYSWGQGTQVTVSS | high polyreactivity
8 | QVQLVESGGGLVQAGGSLRLSCAASGRTIRYYAMGWYRQAPGKERELVAAISWNGANTYYADSVKGRFTISRDNAKNTVYLQMNSLKPEDTAVYYCAATYYRWKGYDYWGQGTQVTVSS | high polyreactivity
9 | QVQLVESGGGLVQAGGSLRLSCAASGGTFVLNAMGWYRQAPGKERELVATISSGGGTDYADSVKGRFTISRDNAKNTVYLQMNSLKPEDTAVYYCNTDYILWGDYDYWGQGTQVTVSS | low polyreactivity
10 | QVQLVESGRGLVQAGGSLRLSCAASGSTRRYVMGWYRQAPGKERELVAVISRGGSTYYADSVKGRFTISRDNAKNSVYLQMNSLKPEDTAVYYCNGQPVIPRGGDYWGQATQVTVSS | high polyreactivity
11 | QVQLVESGGGLVQAGGSLRLTCAASGSTLIDNVMGWYRQAPGKERELVASITSSDGTTYADSVKGRFTISRDNAKNSVYLQMNSLKPEDTAVYYFAARPWYGTYNYWGEGTQVTVSS | low polyreactivity
12 | QVQLVESGGGLVQAGGSLRLICAASGRIFYNYVMGCYRQAPGKERDLVAAISVSSGNTYYADSVKGRFTISRDYAKITVYLQMNSLKPEDTAVYYCARLRTVGGYSKYDYWGQGTQVTVSS | low polyreactivity
13 | QVQLVESGGGLVQAGGSLRLSCAASGSTFALYTMGWYRQAPGKERELVAGITIDGSTNYADSVKGRFTISRDNAKNTVYLQMNSLKPEDTAVYYCNADSYKYPLLKYRSDYWGQGTQVTVSS | low polyreactivity
14 | QVQLVESGGGLVQAGGSLRLSCAASGFISRYYYMGWYRQAPGKERELVAAIRWSGDRTYYADSVKGRFTISRDNAKNTVYLLMNSLKPEDTAVYYCNADVVLGRSWRGYWGQGTQVTVSS | high polyreactivity
15 | QVQLVESGGGLVQAGGSLRLSCAASGSILKVYAMGWYRQAPGKERELVAGITRSGVRTNYADSVKGRFTISRDNAKNTVYLQMNSLKPEDTAVCYCAAVGYVYRTYWYTRQSTYEYWGQGTQVTVSS | high polyreactivity
16 | QVQLVESGGVLVLVGGSLRLSCADSGMTFYWYTMGWYRQAPGKERELVAAITRRSARTYYADSVKGRFSISRDNAKNTVYLQMNILKPEDTAVYYCGAAGRPGGYVQRDSWGQGTQVTVSS | high polyreactivity
17 | QVQLVESGGGLVQAGGSLRLSCAASGRIFKQYAMGWYRQAPGKERELVAAISVRGGITYYADSVKGRFTISRDNAKNTVYLQMNSLKPEDTAVYYCAKRSYRTHTYDYWGQGTQVTVSS | low polyreactivity
18 | QVQLVESGGGLVQAGGSLGLSCAATGSIFNPYAMGWYRQAPGKVRELVAAISSTGSTYYADSVKGRFTISRDNAKNTVYLQMISLKPEDTAVYYCAADWYWYWFSTYDYWGQGTEVTVSS | low polyreactivity
19 | QVQLVESAGGLVQAGGSLRLSCAPSGFIFKHNAMGWYRQAPGKERECVAAISWSGDSTYYADSVKGRFTISRDNAKNTVYLQMNSLKPEDTAVYYCAAVRALRKVRDYYYWGQGTQVTVSS | high polyreactivity
20 | QVQLVESGGGLVQAGGSLRLSCAASGRIFRPYAMGWYRQAPGKERELVAAISVSGVITYYADSVKGRFTISRDNAKNTVYLQMNSLKPEDTAVYYCARRSSTRYFYGWYDYWGQGTQVTVSS | low polyreactivity
21 | QGQLVESGGGLVQAGGSLRLSCAASGGIFVGYPMGWYRQAPGKERELVASSDVRVGSTYYGDSVKGRFTISRDKAKNTVYLQMTSLKPEDTAVYSCEAGGRAVRIYWGYYRTSYDYWGLGTQVTVSS | low polyreactivity
22 | QVQLVESGGGLVQAGGSLRLSCAASGFTSSRNAMGWYRQAPGKERELVAAISSGTSTNYADSVKGRFTISRDNAKNTVYLQMNSLKPEDTAVYYCAAGSYSRYLYSLYFDFDYWGQGTQVTVSS | low polyreactivity

Row | Sequence | polyreactivity (PSR sort gate)
23 | QVQLVESGGGLVQAVGSLRLSCAASGRIFVYNAMGWYRQAPGKERELVASITSSGGSTYYADSVKGRFTISRDNAKNTFYLQMNSLKPEDTAVYYCAADVQPDTRSTPEMDYWGQGTQVTVSS | low polyreactivity
24 | PVQLVESGGGLGQAGGSLRLSCAASGSTFLYSAMGWYRPAPGKERELVAGISASGGSSYYADSVKGRFTISRDYAKNTVYLQMNSLKPEDTAVYYCNATRVVIRHSYDYWGQGTQVTVSS | high polyreactivity
25 | QVQLVESGGGLVQAGGSLRLSCAATGSTSVHNAMGWYRQAPGKERELVDAITSDGSTNYADSVKGRFTISRDNAKNTVYLQMNSLKPEDTAVYFCGAAYWTRLRRMDYWGQGTQVTVSS | low polyreactivity
26 | QVQLVESGGGLVQAGGSLRLSCAASGSTFRGYAMGWYRQAPGKERDLVAAMSSNGDRTFYADSVKGRFTISRDNAKNTVYLQMNSLKPEDTAVYYCNAVYRGSWQLYGYWGLGTQVTVSS | high polyreactivity
27 | QVQLVESGGCLVQAGGSLRLSCAPSGSTFIPNPMGWYRQEPGKERELVAAISRRGGSTNYADSVKGRFTISRDNAKNTVFLQMNSVKPEDTAVYYCAAVSPRRYRYDYWGQGPQVTVSS | low polyreactivity
28 | QVQLVESGGGLVQAGGSLRLSRAASGVIIYRYAMGWYRQAPGKERELVAAISRSGGSTYYADSVKGRFTISRDNAMNTVYLQMNCLKPEDTAVYYCAADRGSLAPGNDYWGQGTQVTVSS | high polyreactivity
29 | QVQLVESGGGLVQAGGSLRLSCAASGGTFRVYAMGWYRQAPGKERELVAAITGRGGSTYYADSVKGRFTISRDNAKNTVYLQMNSLKPEDTAVYYCAAQAYWDFGSVARRDSWGQGTQVTVSS | low polyreactivity
30 | QVQLEESGGGLVQAGGSLRLSCSASGLILHGYAMGWYRQAPGKERELVAAITRSGGRTYYADSVKGRFTISRDNAKYTVYLQMNSLKPEDTAVYYCAALGWSGRYRYDYWGQGTQVTVSS | high polyreactivity
31 | QVQLVESGGGLVQAGGSLRLSSAASGFILEPNAMGWYRQAPGKERELVAAITTSGGTYYADSVKGRFTISRDNAKNTVYLQMNSLKPEDTAVYYCNAVSTDSWAYHGDYWGQGTQVTVSS | low polyreactivity
32 | QVQLVESGGGLVQAGGSLRLSCAASGRTINPYGMGWYRPAPGKERELVADINSGGITNYADSVKGRFTISRDNAKNTVYLQMNSLKPEDTAVYYCNADGFIQPDDWRNFAGDYWGQGTQVTVSS | low polyreactivity
33 | QVQLVDSGGGLVQAGGSLRLSCAASGINFASYAMGWYRQAPGKEMEIVAAISRSGSSTYYADSVKGRFTISRDNAKYTVYLQMNSLKPEDTAVYYCARARSGGSHREYYWGQGTQVTVSS | high polyreactivity
34 | QVQLVESGGGLVQAGGSLRLSCPASGYTFYVYAMGWYRQAPGKERELVAAIGGGSTNYADSVKGRFTISRDNAKNTVYLQMNSLKPEDTAVYYCAARRYYKFYYWGQGTQVTVSS | high polyreactivity
35 | QVQLVESGGGLFQAGGSLRLSCAASGSIFQYYTMRWYRQAPGKERELVATINNNGGRTYYADSVKGRFTISRDNAMNSVYFQMYSLKPVDTAVYYCATDIWRYYRGWEDYWGQGTEVTVSS | high polyreactivity
36 | QVQLVESGGGLVQAGGSLRLSCAASGSTFVYNAMGWYRQAPGKERELVAAIRTTGTGTYYADSVKGRFTISRDNAKNTVYLQMNSLKPEDTAVYYCATDYNYWKLDFGYWGQGTQVTVSS | high polyreactivity
37 | QVQLVESGGGLVQAGGSLRLSCAASGSTFRYSAMGWDRQAPGKEREFVAAISWSGSSTYYADSVKGRFTISRDNAKNTVYLQMNILKPEDTAGYYCAARYRYRSSSYDYWGQGTQVTVSS | high polyreactivity
38 | QVQLVESGGGLVQAGGSLRLSCAASGRTFKYYAMGWSRQAPGKERELVATISSGGSTNYADSVKGRFTISRDNAKNTVYLQMNSLKPEDTAVYYCADTIGHNGFDYWGQGTQVTVSS | low polyreactivity
39 | QVQLVESGGGLVQAGGSLRLSCAASGSIFKYYVMGWYRQAPGKERELVAAISSGGGSTYYADSVKGRFTISRDNAKNTVYLQMNSLKPEDTAVYYCNKKYRSRWQGPFDYWGQGTQVTVSS | high polyreactivity
40 | QVQLVESVGGFVQAGGSLRLSCAASGRTFGRYAMGWYRQAPGKEWELVAAITRSGSSTYYADSVKGRFTISRDNAKNTVYLQMNSMKPEDTAVYYCAALYGPFYSTGEYWGQGTQVTVSS | high polyreactivity
41 | QVQLVESGGGLVQAGGSLRLSCAASGFTFTFNAMGWYRQAPGKERELVAGITSGTSTNYADSVKGRFTISRDNAKNTVYLQMNSLKPEDTAVYYCAADLYLTSGSQGVYVRYDYWGQGTQVTVSS | low polyreactivity
42 | QVQLVESGGGLVQAGGSLRLSCAASGRTFFRNTMGWYRQAPGKERELVATISSSGGSTYYADSVKGRFTISRDNAKNTVYLQMNSLKPEDTAVYYCAAAPSKWYYGYGYWGQGTQVTVSS | high polyreactivity
43 | QVQLVESGGGLVQAGGSLRLICAASGLTFHRYAMGWYRQAPGKERELVAAINYSGGRTYYADSVKGRFTISRDNAKNTVYLQMNSLKPEDTAVYYCAAPRASGYYWGQGTQVTVSS | high polyreactivity
